Common to all, as to experiment: ITC; 25 °C, MicroCal PEAQ-ITC; protein in the cell titrated with 19 injections of peptide
Details in all cases: both partners purified
(Isothermal titration calorimetry measures the heat released or taken up as one component is titrated into another.)

Test [1] deals with T1, RBBP4 (1‐ 425) (UniProt Q09028 1-425).
T1 construct: RBBP4 residues 1-425; source: Sf9 (baculovirus), purified (Ni-NTA, Resource Q, Superdex 75)

Test [2] concerns the target T2, RBBP7 (1‐ 425) (UniProt Q16576 1-425).
T2 construct: RBBP7 residues 1-425; source: Sf9 (baculovirus), purified (Ni-NTA, Resource Q, Superdex 75)

The target in test [3] is T3, PHD domain of UHRF1 (UHRF1PHD) (structural Zn2+ ions bound; limits are not given, so they follow the usual UHRF1 PHD structural constructs (about 298-366), which include the N-terminal pre-PHD zinc site; the UniProt PHD-type featu).
T3 chain: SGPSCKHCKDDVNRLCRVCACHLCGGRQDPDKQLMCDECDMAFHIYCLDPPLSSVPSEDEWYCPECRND

Non-standard residues stand in square brackets, D forms with d. No end group written: not given here. Arg(Me2a) = CN(C)C(=N)NCCC[C@H](N)C(=O)O

T1 sequence (Q09028 whole entry, the tested form may be a part): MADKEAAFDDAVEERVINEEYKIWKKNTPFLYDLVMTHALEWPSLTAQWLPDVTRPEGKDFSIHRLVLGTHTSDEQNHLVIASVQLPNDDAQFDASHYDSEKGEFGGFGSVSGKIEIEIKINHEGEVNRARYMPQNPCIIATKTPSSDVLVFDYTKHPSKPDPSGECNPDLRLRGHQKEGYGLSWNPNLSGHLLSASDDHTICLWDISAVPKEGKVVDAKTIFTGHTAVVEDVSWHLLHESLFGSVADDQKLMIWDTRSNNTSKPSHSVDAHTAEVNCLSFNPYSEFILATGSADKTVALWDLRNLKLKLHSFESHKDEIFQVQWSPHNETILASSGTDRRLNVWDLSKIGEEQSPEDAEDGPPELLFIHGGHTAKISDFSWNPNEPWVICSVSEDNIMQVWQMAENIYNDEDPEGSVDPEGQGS
T2 sequence (Q16576 whole entry, the tested form may be a part): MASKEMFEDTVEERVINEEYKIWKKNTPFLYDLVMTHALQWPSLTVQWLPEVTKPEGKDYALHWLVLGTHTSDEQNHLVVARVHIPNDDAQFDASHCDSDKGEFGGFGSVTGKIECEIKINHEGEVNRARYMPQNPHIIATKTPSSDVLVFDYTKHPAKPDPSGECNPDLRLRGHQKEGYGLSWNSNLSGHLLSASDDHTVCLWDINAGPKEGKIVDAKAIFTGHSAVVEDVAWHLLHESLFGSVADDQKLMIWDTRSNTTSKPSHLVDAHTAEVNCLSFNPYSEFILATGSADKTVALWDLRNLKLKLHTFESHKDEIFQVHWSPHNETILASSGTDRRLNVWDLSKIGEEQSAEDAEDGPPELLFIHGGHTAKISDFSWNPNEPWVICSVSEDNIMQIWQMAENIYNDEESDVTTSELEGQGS

B1: native H3R2me2a peptide (H3_(1‐15) without diazirine and biotin) (peptide)
peptide: A[Arg(Me2a)]TKQTARKSTGGKA-NH2
notes: Rink amide resin was used for all peptides, so the C-terminus is probably an amide; source: synthetic peptide (Fmoc solid-phase synthesis)
The term Kd denotes the concentration at which binding is half-saturated. Higher therefore signals weaker binding. As to B1, the values for the Kd in test [1] and in test [2] were approximately 1.2 µM and 15.4 µM, respectively.

B2: native H3R2 peptide (H3_(1‐15) without diazirine and biotin) (peptide)
peptide: ARTKQTARKSTGGKA-NH2
notes: Rink amide resin was used for all peptides, so the C-terminus is probably an amide; also called native H3_(1‐15) peptide; source: synthetic peptide (Fmoc solid-phase synthesis)
Turning to B2, the Kd in test [3] stood at 2.3 µM.

The values above are taken from article PMC11005723, “Development of Complementary Photo‐arginine/lysine to Promote Discovery of Arg/Lys hPTMs Interactomes” (Advanced Science, 2024).
